Like-named read-outs stand apart in the source and are kept apart here. One block for each molecule: values may come before it. *1 amine or outer side, *2 acyl side, *3 side chain or, on linkers, in order; H or OH if unused. Where a SMILES comes first, the peptide text is derived from it. Side-chain parts run from the residue outwards. [ ]: non-standard residue; d: D form. The star is where a group is joined. HSG = histamine succinyl glycyl group, O=C(CCC(=O)NCC(=O)*)NCCc1c[nH]cn1; DOTA = O=C(O)CN1CCN(CC(=O)O)CCN(CC(=O)*)CCN(CC(=O)O)CC1; NH(2-(imidazol-4-yl)ethyl) = c1ncc(CCN*)[nH]1; Suc = O=C(CCC(=O)[*:2])[*:1]
How the values were obtained:
[1] = Stability of Al^18F(IMP467) in human serum or PBS; format: in vitro ADME
Procedure: An aliquot of the HLB purified peptide (˜30 μL) was diluted with 200 μL human serum (previously frozen) and placed in the 37° C. HPLC sample chamber. Aliquots were removed at various time points and analyzed by HPLC.
Optimized conditions for ^18F-labeling of IMP467 were identified. These consisted of eluting ^18F^− with commercial sterile saline (pH 5-7), mixing with 20 nmol of AlCl3 and 40 nmol IMP467 in pH 4 acetate buffer in a total volume of 100 μL, heating to 102° C. for 15 min, and performing SPE separation. High-yield (85%) and high specific activity (115 GBq/μmol) were obtained with IMP467 in a single step, 30-min procedure after a simple solid-phase extraction (SPE) separation without the need for HPLC purification. Al^18F(IMP467) was stable in PBS or human serum, with 2% loss of ^18F after incubation in either medium for 6 h at 37° C.

[2] = Radioprotection of 800CW with radical scavengers; format: physicochemical; settings: for radioprotection of 800CW: 20 MBq of ^68Ga, 0.5, 3 and 6 h exposure
Procedure: The radioprotective effect of three common hydroxyl radical scavengers, ethanol, gentisic acid (GA) and ascorbic acid (AA) was tested. […]

[3] = biological target: somatostatin receptors on AR42J cells (rat); experiment: apparent IC50; competition with ^111In(DTPA-octreotide) on AR42J cells, 3 h at RT
[4] = tested on: nude BALB/c mice with s.c. LS174T tumors; experiment: PET/CT images, region of interest ratios; format: in vivo
Procedure: (§1) PET images were acquired with an Inveon animal PET/CT scanner (Siemens Preclinical Solutions, Knoxville, Tenn.). PET emission scans were acquired for 15 minutes, preceded by CT scans for anatomical reference (spatial resolution 113 μm, 80 kV, 500 μA, exposure time 300 msec).
(§2) Uptake in the tumor was evaluated quantitatively by drawing regions of interest (ROI), using a 50% threshold of maximum intensity. A region in the abdomen was used as background region.

[5] = PET/CT images, region of interest ratios; format: in vivo, mice; settings: male, BALB/c nude, mouse, iv, total radioactivity, mice with LS174T tumor and inflamed muscle, ^68Ga(IMP288) after TF2
Procedure: as §1, §2

[6] = tested on: nude mice bearing LS174T human colonic xenografts; experiment: Biodistribution of ^18F-labeled agents with or without TF2 pretargeting; settings: not pretargeted
Excerpt: Six-week-old NCr nu-m female nude mice were implanted s.c. with the human colonic cancer cell line, LS174T (ATCC, Manassas, Va.).
Tissues were weighed and counted together with a standard dilution prepared from each of the respective products. Due to the short physical half-life of ^18F, standards were interjected between each group of tissues from each animal. Uptake in the tissues is expressed as the counts per gram divided by the total injected activity to derive the percent-injected dose per gram (% ID/g).

[7] = tested on: nude mice bearing Capan-1 human pancreatic cancer xenografts; experiment: Biodistribution of radiolabeled Fab′; settings: 3 h after injection
Procedure: (§3) Nude mice were inoculated subcutaneously with CaPan-1 human pancreatic adenocarcinoma (ATCC Accession No. HTB-79, Manassas, Va.). When tumors were visible, the animals were injected intravenously with 100 μL of the radiolabeled Fab′. […] The animals were necropsied at 3 h post injection, tissues and tumors removed, weighed, and counted by gamma scintillation, together with standards prepared from the injected products. The data are expressed as percent injected dose per gram.

CEA = biological target: T1, CEA (Homo sapiens, UniProt P06731); experiment: Immunoreactivity with excess CEA by SE-HPLC; format: binding; settings: 0.74-GBq run
T1 sequence (P06731 35-676): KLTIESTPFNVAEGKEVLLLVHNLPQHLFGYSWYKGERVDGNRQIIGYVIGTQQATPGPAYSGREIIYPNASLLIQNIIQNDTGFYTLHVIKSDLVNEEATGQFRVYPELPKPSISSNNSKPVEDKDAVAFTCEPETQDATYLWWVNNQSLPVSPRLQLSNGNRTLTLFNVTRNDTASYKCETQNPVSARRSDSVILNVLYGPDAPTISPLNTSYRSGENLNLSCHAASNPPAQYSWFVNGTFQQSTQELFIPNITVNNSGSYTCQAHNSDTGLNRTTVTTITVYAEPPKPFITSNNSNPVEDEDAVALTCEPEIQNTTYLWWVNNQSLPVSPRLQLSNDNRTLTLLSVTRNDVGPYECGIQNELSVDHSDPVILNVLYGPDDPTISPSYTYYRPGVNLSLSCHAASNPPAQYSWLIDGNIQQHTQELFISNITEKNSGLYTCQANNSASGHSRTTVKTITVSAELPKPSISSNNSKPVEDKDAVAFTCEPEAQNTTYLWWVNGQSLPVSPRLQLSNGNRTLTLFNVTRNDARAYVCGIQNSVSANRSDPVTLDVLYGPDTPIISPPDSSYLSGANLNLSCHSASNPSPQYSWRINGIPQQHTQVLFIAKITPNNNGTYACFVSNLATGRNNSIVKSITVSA
Procedure: Immunoreactivity of the purified product was analyzed by adding an excess of CEA and separating on SE-HPLC, comparing to a profile of the product alone. The product was also analyzed by RP-HPLC to assess percent-unbound Al^18F(NOTA-MPAEM).

[8] = tested on: nude mice bearing Capan-1 human pancreatic cancer xenografts; settings: mouse, in vivo
Procedure: as §3

[9] = Stability of ^18F-labeled IMP272 in PBS (reverse phase HPLC); format: physicochemical; settings: incubated at room temperature with PBS for ~1 hr
Procedure: ^18F-Labeling of IMP272—A 3 μL aliquot of the aluminum stock solution was placed in a REACTI-VIAL™ and mixed with 50 μL ^18F (as received) and 3 μL of the IMP272 solution. […] The remainder of the peptide solution was incubated at room temperature with 150 μL PBS for ˜1 hr and then examined by reverse phase HPLC.

[10] = Stability of ^18F-labeled IMP449 in human serum at 37° C.
Procedure: Three microliters of a 2 mM solution of Al in a pH 4 acetate buffer was mixed with 15 μL, 1.3 mCi of ^18F. […] […] […] Another aliquot was removed after 1 hr and analyzed by HPLC.

[11] = IRDye800CW irradiations (radiobleaching); format: physicochemical
Procedure: To assess the radiosensitivity of 800CW, 5 μg/mL aqueous solution of the dye in 0.1 M NaAc buffer pH 4.5 was prepared and mixed with increasing activities of ^68Ga, ^111In, and ^213Bi (1-20 MBq) for a 310 μL final volume. Radioactive solutions were incubated in 1.5 mL Eppendorf tubes at 4° C. in the dark, and 100 μL aliquots taken at 0.5, 6, and 24 h time points for fluorescence measurement. The effect of volume on 800CW's radiosensitivity was determined by incubating 150, 300, 550,800, or 1050 μL of 5 μg/mL buffered dye solution with 20 MBq of ^68Ga. All fluorescence readings were normalized to non-irradiated controls.

[12] = Effect of heating on fluorescence of 800CW; format: physicochemical; settings: NaAc 0.1 M pH 4.5, 1 h at 95° C.
Procedure: To investigate the effect of heating on the fluorescence of 800CW, 5 μg/mL solutions of the dye in NaAc (0.1 M, pH 4.5) were placed in a heating block at 95° C. for 5, 15, 30, or 60 min. Following, samples were cooled down to room temperature, measured in the plate reader, and the fluorescence of each sample was normalized to a non-heated control.

Sequence of somatostatin receptors on AR42J cells (rat) (P30680 whole entry): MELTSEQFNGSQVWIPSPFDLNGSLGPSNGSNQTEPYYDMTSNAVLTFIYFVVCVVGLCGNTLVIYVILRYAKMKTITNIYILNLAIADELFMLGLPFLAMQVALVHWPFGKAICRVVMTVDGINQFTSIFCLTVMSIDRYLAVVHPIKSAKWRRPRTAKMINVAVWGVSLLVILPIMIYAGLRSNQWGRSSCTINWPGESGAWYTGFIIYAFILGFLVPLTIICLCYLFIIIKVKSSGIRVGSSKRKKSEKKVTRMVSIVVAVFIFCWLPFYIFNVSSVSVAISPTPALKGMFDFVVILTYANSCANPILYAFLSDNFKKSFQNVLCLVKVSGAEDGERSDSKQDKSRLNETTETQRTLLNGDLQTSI

Molecule: C-NETA-succinyl-D-Lys(HSG)-D-Tyr-D-Lys(HSG)-NH2 ({C‑NETA-Suc}-[dK](HSG)-[dY]-[dK](HSG)-NH2) [IMP467]
breakdown of ^18F-labeled peptide in serum ([1]; human serum, 37° C., five hour incubation): no detectable breakdown

Molecule: O=C1O[C@H]([C@@H](O)CO)C(O)=C1O [AA, ascorbic acid]
radioprotection against ^111In and ^213Bi induced radiobleaching of 800CW ([2]; 0.1% (w/v) AA): effective radioprotection
concentrations that completely preserve 800CW fluorescence ([2]; 20 MBq of ^68Ga, longer radiation exposure): 0.001-10 % (w/v)

IC50 [3]: 6.3 nM
Molecule: ^115In(DTPA-octreotide) (peptide)

Molecule: CCO [EtOH, ethanol]
radioprotection of 800CW [2]: both concentration and exposure time dependent

Molecule: NC(=O)[C@@H](CCCCNC(=O)CNC(=O)CCC(=O)NCCc1c[nH]cn1)NC(=O)[C@@H](CCC(=O)O)NC(=O)[C@@H](CCCCNC(=O)CNC(=O)CCC(=O)NCCc1c[nH]cn1)NC(=O)[C@@H](Cc1ccc(O)cc1)NC(=O)CN1CCN(CC(=O)O)CCN(CC(=O)O)CCN(CC(=O)O)CC1 [^68Ga(IMP288), metal not drawn] ({DOTA}-[dY][dK]([Gly-Suc-NH(2-(imidazol-4-yl)ethyl)])[dE][dK]([Gly-Suc-NH(2-(imidazol-4-yl)ethyl)])-NH2)
tumor-to-background ratio in PET image ([4]; TF2 and ^68Ga(IMP288), 1 h, ROI 50% threshold, abdomen as background): 38.2
tumor-to-inflamed tissue ratio in PET/CT image ([4]; mice with LS174T tumor and inflamed muscle, ^68Ga(IMP288) after TF2): 5.4
tissue to tissue ratio at 1 h ([5]; read-out: inflamed muscle-to-background ratio in PET/CT image): 8.9
tissue to tissue ratio at 1 h ([5]; read-out: tumor-to-background ratio in PET/CT image): 48

Molecule: [18FH] [^18F, reference compound]
tumor/blood ratio [6]: 6.7±2.7

Molecule: Al^18F(NOTA-MPAES)-hMN-14 Fab′: Al^18F(NOTA-MPAEM) conjugated to Fab′ of humanized MN-14 anti-CEACAM5 IgG (labetuzumab)
% ID/g Blood [7]: 0.5 ± 0.1 % ID/g
% ID/g Capan-1 tumor [7]: 2.8 ± 0.3 % ID/g
% ID/g Kidney [7]: 216 ± 30.9 % ID/g
% ID/g Lg. Int. [7]: 1.1 ± 0.4 % ID/g
% ID/g Liver [7]: 17.5 ± 3.8 % ID/g
% ID/g Lung [7]: 4.2 ± 1.6 % ID/g
% ID/g Muscle [7]: 0.4 ± 0.1 % ID/g
% ID/g Scapula [7]: 1.6 ± 0.4 % ID/g
% ID/g Sm. Int. [7]: 2.2 ± 0.2 % ID/g
% ID/g Spleen [7]: 11.3 ± 1.6 % ID/g
% ID/g Stomach [7]: 0.6 ± 0.1 % ID/g
T/NT Blood (tumor/blood ratio) [7]: 5.9 ± 1.3
T/NT Kidney [7]: 0.0 ± 0.0
T/NT Lg. Int. [7]: 2.8 ± 0.7
% ID/g Capan-1 tumor ([7]; listed as [Al^18F]-Fab′): 2.8±0.3 % ID/g
T/NT Blood (tumor/blood ratio) ([7]; listed as [Al^18F]-Fab′): 5.9±1.3
shift of activity on SE-HPLC when excess CEA was added (CEA): all of the activity shifted
T/NT Liver [8]: 0.2 ± 0.04
T/NT Lung [8]: 0.8 ± 0.5
T/NT Muscle [8]: 6.7 ± 1.3
T/NT Scapula [8]: 1.8 ± 0.4
T/NT Sm. Int. [8]: 1.3 ± 0.1
T/NT Spleen [8]: 0.3 ± 0.04
T/NT Stomach [8]: 4.7 ± 1.2

Molecule: NC(=O)[C@@H](CCCCNC(=O)CNC(=O)CCC(=O)NCCc1c[nH]cn1)NC(=O)[C@@H](Cc1ccc(O)cc1)NC(=O)[C@@H](CCCCNC(=O)CNC(=O)CCC(=O)NCCc1c[nH]cn1)NC(=O)CCC(=O)Nc1ccc(CC(CN2CCN(CC(=O)O)CCN(CC(=O)O)CC2)N(CC(=O)O)CC(=O)O)cc1 (stereo partly drawn) [Al^18F(IMP467)]
loss of ^18F ([1]; incubation in PBS or human serum for 6 h at 37° C.): 2%

^18F still attached to the peptide [9]: 42%
^18F unbound [9]: 58%
Molecule: DTPA-Gln-Ala-Lys(HSG)-D-Tyr-Lys(HSG)-NH2 [IMP272]

Molecule: C[C@@H](NC(=S)Nc1ccc(CC2CN(CC(=O)O)CCN(CC(=O)O)CCN2CC(=O)O)cc1)C(=O)N[C@H](CCCCNC(=O)CNC(=O)CCC(=O)NCCc1c[nH]cn1)C(=O)N[C@H](Cc1ccc(O)cc1)C(=O)N[C@H](CCCCNC(=O)CNC(=O)CCC(=O)NCCc1c[nH]cn1)C(N)=O (stereo partly drawn) [IMP449, NOTA-benzyl-ITC-D-Ala-D-Lys(HSG)-D-Tyr-D-Lys(HSG)-NH2]
stability in human serum [10]: 76%
stability in human serum ([10]; purified, 37° C., at least one hour): 91%

IC50 [3]: 13 nM
Molecule: ^69Ga(IMP466) (peptide)

IC50 [3]: 3.6 nM
Molecule: Al^19F(IMP466) (peptide)

change of 800CW fluorescence on exposure to ^68Ga ([11]; 0.1 M NaAc pH 4.5, 30 min exposure, increasing activities): pronounced dose-dependent decrease
extent of radiobleaching by the three radionuclides, trend ([11]; similar activity level and exposure times): ^68Ga>^111In>^213Bi
fluorescent intensity, % of the initial values [12]: 60%
Molecule: CC1(C)C(/C=C/C2=C(Oc3ccc(S(=O)(=O)O)cc3)C(=C/C=C3/N(CCCCS(=O)(=O)O)c4ccc(S(=O)(=O)[O-])cc4C3(C)C)/CCC2)=[N+](CCCCCC(=O)O)c2ccc(S(=O)(=O)O)cc21 [800CW]

Molecule: O=C(O)c1cc(O)ccc1O [GA, gentisic acid]
radioprotection of 800CW [2]: both concentration and exposure time dependent

Reference: patent US20160199524A1, “RADIOSENSITIVITY OF FLUOROPHORES AND USE OF RADIOPROTECTIVE AGENTS FOR DUAL-MODALITY IMAGING” (Immunomedics, Inc., priority 2015, published 2016)
